Substitutions are numbered along the chain they refer to. Values belong to the binder of their own block, whether it stands above or below them.
Molecular target: insulin (Homo sapiens (species ), UniProt P01308)
Assay: ELISA

Chain of insulin (P01308 whole entry, looked up): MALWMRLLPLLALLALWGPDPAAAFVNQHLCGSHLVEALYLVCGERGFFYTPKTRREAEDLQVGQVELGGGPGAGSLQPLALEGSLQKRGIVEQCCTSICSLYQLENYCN

binding result: no binding
B1: ibalizumab L chain mutant LM52 (antibody, V domains shown)
VH: QVQLQQSGPEVVKPGASVKMSCKASGYTFTSYVIHWVRQKPGQGLDWIGYINPYNDGTDYDEKFKGKATLTSDTSTSTAYMELSSLRSEDTAVYYCAREKDNYATGAWFAYWGQGTLVTVSS
VL: DIVMTQSPDSLAVSLGERVTMNCKSSQSLLYSTNQKNYLAWYQQKPGQSPKLLIYWANSTESGVPDRFSGSGSGTDFTLTISSVQAEDVAVYYCQQYYSYRTFGGGTKLEIK

binding result: no binding
B2: ibalizumab (wild type) (antibody, V domains shown)
VH: B1 VH
VL: B1 VL with N58S, S59T, T60R
